# Measured values from publication PMC11040147.
# Where two headings read alike, the source gives them in different places.
# Experiments:
# Experiment in all cases: EMSA
# [1] = target: T1, SF3B4 (human? (HeLa cDNA), UniProt Q15427 1-424)
# [2] = target: T1, SF3B4; remark: listed apart in the source
# [3] = target: T1, SF3B4; remark: listed apart in the source
# T1 sequence (Q15427 whole entry): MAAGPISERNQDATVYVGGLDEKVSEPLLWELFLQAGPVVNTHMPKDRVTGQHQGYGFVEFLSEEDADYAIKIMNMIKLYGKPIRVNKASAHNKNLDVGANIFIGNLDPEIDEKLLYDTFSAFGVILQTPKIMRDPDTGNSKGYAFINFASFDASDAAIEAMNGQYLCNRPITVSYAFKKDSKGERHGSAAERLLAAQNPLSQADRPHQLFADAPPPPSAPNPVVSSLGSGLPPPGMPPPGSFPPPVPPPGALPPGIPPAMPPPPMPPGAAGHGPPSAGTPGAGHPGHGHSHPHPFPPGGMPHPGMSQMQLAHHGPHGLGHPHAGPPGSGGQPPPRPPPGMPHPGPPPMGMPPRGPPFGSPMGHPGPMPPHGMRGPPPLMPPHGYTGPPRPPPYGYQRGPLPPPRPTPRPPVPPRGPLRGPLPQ
binder,measurement,setting,value
GGGAGGUGGGAGCCGAGGGUGGG (structured_RNA) [G4-INPPL1],binding result,[1],binds
GGTTAGGGTTAGGGTTAGGGTTAGGGTTAG (structured_DNA) [hTelo],binding result,[2],binds
AGAGUGAAGUCUGAAGCGCUGAG (ssRNA) [PPP6R2-mut],binding result,[3],no binding
